Reference: the supplement of paper PMC9170038

System: MS2 coat protein
Assay: apparent KD of MS2 coat protein; higher = weaker reporter binding
Settings: Eterna round: R107
How it was run: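 Illumina sequencing clusters were used for on-chip transcription of designed RNA switches. Titration with SNAP-549-labelled MS2 coat protein followed, in twofold steps from 0.7 or 1.5 nM to 3 µM in 100 mM Tris-HCl pH 7.5, 80 mM KCl, 4 mM MgCl2, without or with constant ligand. Apparent KD is each design's median of fits to normalised cluster binding curves.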

[1] = input ligand: theophylline 20 uM
[2] = input ligand: tryptophan 2.4 mM
[3] = input ligand: theophylline 2 mM

Row | Sequence | apparent KD of MS2 coat protein (input ligand: arginine 13.2 mM) [nM] | apparent KD of MS2 coat protein [1] [nM] | apparent KD of MS2 coat protein [2] [nM] | apparent KD of MS2 coat protein [3] [nM] | apparent KD of MS2 coat protein (input ligand: none) [nM]
1 | GGCCUUGCGGGCGCCCGCAAGGCCGCGGAUACCAGCGAGGUCCAUCGCCCUUGGCAGCCGAACAUGAGGAUCACCCAUGUCGGUU [Same State - Theophylline A Attempt #6 (HarryS)] | 9.84 | 13.7 | 11.3 |  | 
2 | GUACACUAGUCGGCCGCCACUGUUACAUGAGGAUCACCCAUGUAGGAUCACCCAUGACAUGAGGAUAGGACCGGGACGCAUGAGG [Exclusion Tryptophan B] | 56.8 | 56.1 |  | 69 | 
3 | GGCCUGUGGAGCGAUACCAGCUUGAGUGUACUGGCCAGGUACAUGAGGAUCACCCAUGUAAGCCCUUGGCAGCGCUCCAGAGGCC [#1 Exclusion - Theophylline B Attempt #18 (HarryS)] | 9.41 | 16.4 | 13.2 | 56.7 | 12.1
4 | UUGGGUUUGUGAAGGAGCGGGUAUGUUUUAUAGUGGAUCCUAACAUGAGGAUCACCCAUGUCCCAGGUAGGUCGCGCGGGUUUGG [12.T] | 54.4 | 203 | 117 | 149 | 78.3
5 | ACCUGCGUUUGAUAAAAUCAGACGCAGGUUCGAGGACCGGUACGGCCGCCACUCGGACAUGAGGAUCACCCAUGUUUGACAUGGG [#05 Exclusion Tryptophan A] | 168 | 301 |  | 746 | 
6 | CCAUAAGUAACUGAUACCAGUGUACUGACAUGAGGAUCACCCAUGUUGGGUUUUGUUGUACACCCUUGGCAGCAGAAUCUUGUGG [AstrosExyTheB#16] | 43.9 | 70.1 | 54.3 |  | 
7 | UGUAUGUGAUCUGAUACCAGUCCAACUGGUAAAACCUGAGGAUCACCCAGGUAAAAUUGGGACCCUUGGCAGCAGAUCGCAUACU | 134 | 130 | 177 | 16.1 | 183
8 | AAUAACAUGAGGAUCACCCAUGUAACCGAAGGAGCGGCAAUAAAGCCAGGUAGGUCGCGGAAUAACAUGAGGAUCACCCAUGUAA [Exclusion Arginine A] | 55.5 | 112 | 94.7 | 125 | 138
9 | CACAGUGCGAAAUUGAAACCGCACGAUCCUCGAGGACCGGUACGGCCGCCACUCGCGCGGGUCGUACAUGAGGAUCACCCAUGUC [Zaarmaqu] | 71.8 | 351 |  | 869 | 
10 | GGUUUCGCGGGCGAUACCAGCUUGAUCGUACUGGCCUGGUACAUGAGGAUCACCCAUGUAAGCCCUUGGCAGCGCGCGCGAGACC [#1 Exclusion - Theophylline B Attempt #4 (HarryS)] | 13.3 | 16.9 | 11.7 |  | 
11 | ACAUGAGGAUCACCCAUGUUUGAUGUUCCUCGAGGACCGGUACGGCCGCCACUCGAACGAGUGGCGCGCGAGUGCGCACUCGCGC [aSa] | 11.3 | 20.1 |  | 13 | 
12 | UGCCUAGACGUGGAUUACCCGUGUACCGAAGGAGCGCCCGAAAGGGCAGGUAGGUCGCGGAGGACAUGAGGAUCACCCAUGUUUA | 31.9 | 151 | 175 | 431 | 201
13 | UUCAGCUAGUCGGCCGCCACUGCUUGAGGAUCACCCAAGUAGGUCCACACUGCUUCGGCAGUGAGUAGGACCGGGACUAGCUGAG | 10.9 | 14.4 | 25.8 | 10.1 | 10.1
14 | GCAUCCUAGUCGGCCGCCACUGGAUGUACCCAGUGCUGGUACAAACAUGAGGAUCACCCAUGUACCAGGACCGGGACUAGGAUGC [(Trp1)-(MT2)''-(T1)'-(MT2)'-(Ms2)-(Trp2)_Design3] | 23.6 | 16.4 | 9.93 | 12.3 | 12.7
15 | AGCCCUGUGCUAGAUACCAGCUACAUGAGGAUCACCCAUGUGCGUCAGAAAUGACUGUGUAGCCCUUGGCAGCUACUCGCAUGUA [Exclusion - Theophylline B (Freestyle 6)] | 13 | 20.2 | 13.5 |  | 
16 | GUAAAUUAUAGAAGGAGCGUCGAAAAUGGGUAAACAUGAGGAUCACCCAUGUAAAGGGAACGACAGGUAGGUCGCUAUAAUUUAC [AstromonsSSArgB#15] | 116 | 190 | 167 | 259 | 170
17 | UCCGGACGUUCGGCCGCCACUAAUUUACAUGAGGAUCACCCAUGUGCCAGUGGUCCGCAGAGUAAUAGGACCGGGAACCUUGGCU [theeternabot_exclusion_MS2_Trp_B_10] | 24.4 | 30.8 |  | 26.3 | 
18 | AUGCACAUCAGAAGGAGCGUCUUGGCCAAUCUAGGCCAACAUGAGGAUCACCCAUGUGCAGGACAGGUAGGUCGCUGAUGUGUAG [Arg B SS t8] | 11.6 | 17.8 | 12.4 | 14.5 | 12.3
19 | CGCACAUGAGGAUCACCCAUGUGAGGGCGACGAGGACCGGUACGGCCGCCACUCGCAAAACAUGAGGAUCACCCAUGUGCCGCCG [SSTA DOUBLE!!! :-D #3] | 19.7 | 42.7 | 20.3 | 29.1 | 19.3
20 | AUUCAUGGAAACAUGACAUAGGGAUCUAUCCGAGGACCGGUACGGCCGCCACUCGCGUGGAGGCACAUGAGGAUCACCCAUGUUA [SS Tryp A #5] | 71.2 | 384 |  | 843 | 

Row | Sequence | apparent KD of MS2 coat protein (input ligand: arginine 13.2 mM) [nM] | apparent KD of MS2 coat protein [1] [nM] | apparent KD of MS2 coat protein [2] [nM] | apparent KD of MS2 coat protein [3] [nM] | apparent KD of MS2 coat protein (input ligand: none) [nM]
21 | GAUACGCAGUCGGCCGCCACUUGCUAAGGUGACAAACCAAAACAUGAGGAUCACCCAUGUCUGAUAAGGACCGGGACCACCAUGG [theeternabot_sameState_MS2_Trp_B_14] | 69.7 | 124 |  | 129 | 
22 | AUUAAGAAUAUGUAGACGGCGGAGAAGAGACGAGGACCGGUACGGCCGCCACUCGUGUUAGUUAACAUGAGGAUCACCCAUGUUA [#08 Tryptophan A Same State] | 11.9 | 14.1 | 11.8 | 12.6 | 12.1
23 | UCCUGCAGAGCGGCCGCCACUGUAUUGCGUGAGGAUGACCCAACAUGAGGAUCACCCAUGUUGUUUAGGACCGGGCUUGCCACCA [lkpmullin] | 16.7 | 18.5 | 18.2 | 18.1 | 14.2
24 | CACGGACGAGUGGAUCACCCUCGUAAUAACCGAGGACCGGUACGGCCGCCACUCGAAAACCGUGACCUGUACGAAAAGUGCAGGA | 56.1 | 210 | 73.2 | 531 | 88.7
25 | GCUAGUGGCAGAAGGAGCGAGGCUACAUACGGGUACAUGAGGAUCACCCAUGUGGUGUGUACUCAGGUAGGUCGCUGCCACUAGC [SSAB NP+V+V2 #13 Same Structure] | 193 | 754 | 467 | 977 | 921
26 | AAAAUCCUACCUGAGGAUCACCCAGGUGAAGGAGCGCCCGAAAGGGCAGGUAGGUCGCACCUGAGGAUCACCCUGGUAACCUAAA [ArgEX 11 #DoubleMS2 #OpenEnded #AlternativeMS2] | 28.1 | 69 | 38.6 | 51.7 | 48
27 | CCGACGAUGACUAUGGGUCAGGAGUGCGCACGAGGACCGGUACGGCCGCCACUCGAGGAGUGGGACAUGAGGAUCACCCAUGUGG [X-TryptA-MS2@65] | 31.5 | 73.7 | 33.6 | 52.8 | 30
28 | AAGGGACAUGAGGAUCACCCAUGUACCGAAGGAGCGGCAGAGAUGCCAGGUAGGUCGCGGUACUUGCCGGGUCAUUCAUGCUAAA [Isxeon] | 9.48 | 14.3 | 13.5 | 11.6 | 12
29 | CGGUAGGUAGGUCGAUAUCUACCCGUAGAAGGAGCGUAAGAAAAUACAGGUAGGUCGCUACGGUACAUGAGCAUCAGCCAUGUCC [SSArg A #13 Alt-Ms2] | 10.5 | 15.2 | 13.1 | 11.7 | 11.7
30 | ACUACAAAGUAGUAUAUACGAAAGUAUAGACGAGGACCGGUACGGCCGCCACUCGGUACCGGAAACACAUGAGGAUCACCCAUGU [Ex_TrypA - 3H] | 17 | 25 |  | 23 | 
31 | AGCGUAUAGACGGAUACCAGCGCCAAUUAACAUGAGGAUCACCCAUGUAGUGUGGGUGGACGCCCUUGGCAGCCGAGUAUAGGUA [Exclusion - Theophylline B / A] | 57.3 | 274 | 250 |  | 
32 | GAUGAUAUUGCAGAUACCAGACACAUGAGGAUCACCCAUGUCGCUGAGAUGCUGGAUCGUGUCCCUUGGCAGCUGCGAUAUCAUC [Brazil] | 38.7 | 106 | 49.6 |  | 
33 | UUCUUUAAGUCGGCCGCCACUGAAACAUGAGGAUCACCCAUGUAUAUUUGGGUAUAGGUGGAUUACAGGACCGGGACUAUAGUAA [JR_ExcTryptoB_Sub022] | 31.2 | 72.3 | 79.6 | 104 | 66.1
34 | AAAACAUGAGGAUCACCCAUGUACAUGGGUCGAGGACCGGUACGGCCGCCACUCGCCGCCCGCCCGCCCGCCACCUCUCCCGCCC | 34.7 | 173 |  | 160 | 
35 | AUGCAUGUCAGAAGGAGCGUCUUUAACAUGAGGAUCACCCAUGUAACAUUGAAUUCGAUGAGACAGGUAGGUCGCUGAAUAGUAA [JR_SSArginiB_Sub020] | 21.1 | 72.3 | 42.9 | 62.5 | 82.8
36 | GGCACAUAGUCGGCCGCCACUAGUAUAAGAUGGAAUAACAUGAGGAUCACCCAUGUAAAAGGGACUAGGACCGGGACUAUGUGCC [Rat] | 12.2 | 18.2 | 12.5 | 15.4 | 13
37 | CUGCCAUGCAGAGAUACCAGUGCGCUCAGCACAUGAGGAUCACCCAUGUAGGAUGCCAAUCACCCUUGGCAGCUCUGCAUGGCAG [~`&)_] | 15.5 | 22.8 | 16.3 | 12.8 | 15.7
38 | UACAUGAGGAUCACCCAUGUAUAGAGGGAUACCAGUGUCAGUGAGCACCCUUGGCAGCCCGCGAACAAUGGGUGCGCUAAAUAGU [#19 Exclusion-TheophyllineA] | 23.2 | 75.3 | 32.4 |  | 
39 | CGAACAAAACUAAAUAAACAACUGGGUGAUACCAGUACAUGUGCGUACCCUUGGCAGCAUCCGGCCACAUGAGGAUCACCCAUGU [Ridiansoer] | 35.4 | 98.8 | 40.9 |  | 
